# Measurements taken from patent US20250332300A1 (priority 2024, published 2025).
# Positions of bridges follow the written chain, without caps; N, C: chain ends. Non-standard residues stand in square brackets, D forms with d. *: point of attachment. X4 = 4‑(carboxymethyl)piperazine‑1‑carbonyl, O=C(O)CN1CCN(C(=O)*)CC1; DOTA = O=C(O)CN1CCN(CC(=O)O)CCN(CC(=O)*)CCN(CC(=O)O)CC1; Trp(5-OH) = N[C@@H](Cc1c[nH]c2ccc(O)cc12)C(=O)O; NMePhe(4-F) = CN[C@@H](Cc1ccc(F)cc1)C(=O)O; NMehPhe = CN[C@@H](CCc1ccccc1)C(=O)O; aThr = C[C@H](O)[C@H](N)C(=O)O; NMeK = CN[C@@H](CCCCN)C(=O)O; NMeDap = CN[C@@H](CN)C(=O)O; Dap = NC[C@H](N)C(=O)O
# Columns and labels:
# [1] = molecular target: T1, human HER2 (23-652) (Homo sapiens, UniProt P04626); assay: Surface plasmon resonance (SPR) for assessment of peptide affinity, human HER2; format: binding; settings: SPR, human HER2 extracellular domain, 25° C., 1:1 binding model; read-out: huHER2-SPR-ONC KD
# Protocol: Each protein was immobilized either onto a SA sensorchip (Cytiva, BR-1005-31) or CM5 sensorchip (Cytiva, BR-1005-30) to a density of 800-2000 RU. […] For the assay setup the same conditions (flow rate, running buffer, peptide dilution) as described above were used. In a first step the Anti Fc IgG Ab (from Human Antibody Capture Kit, Ref. 29234600, Cytiva) was diluted into acetate pH 5.0 at 25 ug/mL and immobilized at a flow rate of 10 uL/min over 360 s to reach a density around 6000 RU. […] The peptides were tested with an association time of 280 s followed by a dissociation time of 3000 s at a flow rate of 30 uL/min. The regeneration was done using 3 M magnesium chloride regeneration solution as obtained with a contact time of 30 s at a flow rate of 10 uL/min. Curve fitting was performed using the BiacoreTM 8K evaluation software.
# [2] = molecular target: T1, human HER2 (23-652); assay: TR-FRET competition assay for peptide potency, human HER2; format: binding; design: towards human HER2 (23-652) and mouse HER2 (23-653); made in house; host or cells: mammalian cells; settings: read-out: huHER2 TR-FRET IC50
# [3] = molecular target: T2, mouse HER2 (23-653) (Mus musculus, UniProt P70424); assay: TR-FRET competition assay for peptide potency, mouse HER2; format: binding; design: mouse HER2 (23-653) using a Cy5 labeled peptide as a probe; made in house; host or cells: mammalian cells; settings: TR-FRET competition with Cy5 labeled peptide probe, 0.1 nM mouse HER2, 24 h incubation; read-out: moHER2 TR-FRET IC50
# [4] = molecular target: T2, mouse HER2 (23-653); assay: Surface plasmon resonance (SPR) for assessment of peptide affinity, mouse HER2; format: binding; settings: SPR, mouse HER2 extracellular domain, 25° C., 1:1 binding model; read-out: moHER2-SPR-ONC KD
# Source text: Each protein was immobilized either onto a SA sensorchip (Cytiva, BR-1005-31) or CM5 sensorchip (Cytiva, BR-1005-30) to a density of 800-2000 RU.
# [5] = system: subcutaneous JimT1 tumors; design: species or system Nu (NCr)-Foxnlnu-homozygous mice; settings: mouse, in vivo, iv
# Protocol: Biodistribution studies were performed at Minerva Imaging. All animal experimentation was carried out under a license approved by the National Animal Experiments Inspectorate under the Ministry of Environment and Food of Denmark, and further approved by the Novartis Animal Welfare Office. Biodistribution studies were performed in Nu (NCr)-Foxnlnu-homozygous mice bearing subcutaneous JimT1 tumors. Mice were subcutaneously implanted with 2×10^6 JimT1 cells into right flank. The biodistribution studies were typically performed when tumors were approximately 200 mm^3 in volume. Compounds according to Examples H1 and H2 were prepared as described in the radiochemistry part (Section 9). Animals were single dose administered with an activity concentration of 4 MBq/nmol per animal. The biodistribution of the compounds was assessed using conventional ex vivo biodistribution at different time points (1, 4, 24 and 72 hrs) after intravenous injection of Lu-177 labelled compounds. Mice were euthanized and organs were collected, weighed, and placed inside counting vials. Organ uptake was assessed by gamma counting using an automated gamma counter for 60 seconds immediately after tissue collection. Tissue counts and injected doses for individual animals were decay-corrected to the time of injection. […] Results expressed as a percentage of injected dose per gram of the tissue (% ID/g).
# [6] = molecular target: T3, human HER2 (23-652), biotinylated, His tag, Avi tag (human, UniProt P04626 23-652, biotin (Avi tag)); assay: TR-FRET competition vs Cy5 peptide probe
# T3 construct: range 23-652; TR-FRET used the in-house 23-652 protein; also called huHER2; human epidermal growth factor receptor 2; not shown: His tag and Avi tag, said to be at the N-terminus for the TR-FRET protein
# [7] = molecular target: T4, mouse HER2 (23-653), biotinylated, His tag, Avi tag (mouse, UniProt P70424 23-653, biotin (Avi tag)); assay: TR-FRET competition vs Cy5 peptide probe
# T4 construct: range 23-653; in-house protein expressed in mammalian cells; also called moHER2; not shown: His tag and Avi tag, said to be at the N-terminus for the TR-FRET protein
# [8] = molecular target: T3, human HER2 (23-652), biotinylated, His …; assay: SPR, HER2 on chip, 25 C
# [9] = molecular target: T4, mouse HER2 (23-653), biotinylated, His …; assay: SPR, HER2 on chip, 25 C
# T2 sequence (P70424 23-653): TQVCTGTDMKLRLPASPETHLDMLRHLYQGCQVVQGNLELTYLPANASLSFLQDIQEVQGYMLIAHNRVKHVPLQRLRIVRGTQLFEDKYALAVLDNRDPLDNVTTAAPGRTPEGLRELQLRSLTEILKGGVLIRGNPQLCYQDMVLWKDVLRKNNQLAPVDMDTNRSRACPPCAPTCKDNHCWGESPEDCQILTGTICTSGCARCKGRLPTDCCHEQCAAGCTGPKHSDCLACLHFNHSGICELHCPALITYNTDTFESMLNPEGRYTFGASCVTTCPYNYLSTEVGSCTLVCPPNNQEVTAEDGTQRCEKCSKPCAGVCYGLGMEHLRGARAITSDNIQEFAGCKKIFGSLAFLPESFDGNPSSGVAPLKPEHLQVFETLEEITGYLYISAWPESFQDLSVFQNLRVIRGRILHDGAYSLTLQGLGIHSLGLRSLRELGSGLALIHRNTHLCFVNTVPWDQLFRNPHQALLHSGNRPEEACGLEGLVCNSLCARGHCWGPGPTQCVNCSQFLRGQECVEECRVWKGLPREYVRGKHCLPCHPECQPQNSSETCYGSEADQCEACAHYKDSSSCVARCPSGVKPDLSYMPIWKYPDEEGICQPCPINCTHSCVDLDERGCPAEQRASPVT
# T4 sequence (P70424 23-653 limits assumed): as the sequence (P70424 23-653) above
molecule,measurement,setting,value
CC(=O)NCCCC[C@H]1C(=O)N[C@@H](Cc2c[nH]c3ccc(O)cc23)C(=O)N[C@@H](Cc2c[nH]c3ccccc23)C(=O)N[C@@H](C2CC2)C(=O)N(C)[C@H](C(=O)N(C)[C@@H](Cc2ccc(F)cc2)C(=O)N[C@@H](CCCCNC(=O)c2ccc([N+](C)(C)C)nc2)C(N)=O)CNC(=O)CCC[C@H](NC(C)=O)C(=O)N[C@@H](Cc2ccc(O)cc2)C(=O)N[C@@H](CO)C(=O)N(C)[C@@H](CCc2ccccc2)C(=O)N1C [Example F2],Kd,[1],< 0.1 nM
same,IC50,[2],< 0.1 nM
same,IC50,[3],0.2 nM
same,Kd,[4],< 0.1 nM
"COCCOCCOCCOCCOCCOCCOCCOCCOCCOCCOCCOCCC(=O)N[C@H]1CCCC(=O)NC[C@@H](C(=O)N(C)[C@@H](Cc2ccc(F)cc2)C(=O)N[C@@H](CCCCNC(=O)CN2CCN(CC(=O)O)CCN(CC(=O)O)CCN(CC(=O)O)CC2)C(N)=O)N(C)C(=O)[C@H](C2CC2)NC(=O)[C@H](Cc2c[nH]c3ccccc23)NC(=O)[C@H](Cc2c[nH]c3ccc(O)cc23)NC(=O)[C@H](CCCCNC(C)=O)N(C)C(=O)[C@H](CCc2ccccc2)N(C)C(=O)[C@H](CO)NC(=O)[C@H](Cc2ccc(O)cc2)NC1=O [Example H1, Example B2 labelled with ^177Lu, metal not drawn]",tumor/normal tissue ratios,[5],favorable tumor/normal tissue ratios
Ac-EY[Dap](DOTA)[NMehPhe][NMeK](Ac)[Trp(5-OH)]W[aThr][NMeDap][NMePhe(4-F)]K(X4)-NH2 (lactam 1-9; also: DOTA complexed with 175Lu) [Example C26],IC50,[6],4.2 nM
same,IC50,[7],17 nM
same,Kd,[8],5.1 nM
same,Kd,[9],11 nM
